The record followed here is publication PMC314469, “Protein Interaction Networks by Proteome Peptide Scanning” (PLoS Biology, 2004).

T1: amphyphisin SH3 (AMPH_HUMAN), P49418
T1 chain: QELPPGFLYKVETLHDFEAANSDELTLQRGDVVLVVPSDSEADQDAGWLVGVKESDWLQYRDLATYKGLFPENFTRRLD

The target in one assay is T1, amphyphisin SH3 (AMPH_HUMAN), P49418. Nature of the assay: SPOT array.
PPPIPKKPPKGKFP [Q9P1A6 952-966] yielded a normalised SPOT signal, Boehringer light units (BLU); mean over the file's lines of this peptide of 64.7.

As to PPLEPARPNRHPES [Q9H293 60-73], the normalised SPOT signal, Boehringer light units (BLU); mean over the file's lines of this peptide amounted to 282.

Consider PPPPPARPPARRAS [Q9H1V5 1094-1108], for which the normalised SPOT signal, Boehringer light units (BLU); mean over the file's lines of this peptide stood at 11500.

The molecule PPEKPPRPPRPLHL [Q8TEL4 110-124] showed a normalised SPOT signal, Boehringer light units (BLU); mean over the file's lines of this peptide of 14400.

ASFQPARPHRARHP [O95612 13-26] returned a normalised SPOT signal, Boehringer light units (BLU); mean over the file's lines of this peptide of 3200.

Take PPARPPRPPYPPRR [AAH27972 518-532]: the normalised SPOT signal, Boehringer light units (BLU); mean over the file's lines of this peptide stood at 16000.

Regarding PPGKPERPPPQGGN [P10163 115-129], the normalised SPOT signal, Boehringer light units (BLU); mean over the file's lines of this peptide came out at 59.4.

Regarding PPPLPNKPPPEDYY [Q8TED9 137-151], the normalised SPOT signal, Boehringer light units (BLU); mean over the file's lines of this peptide worked out at 42.3.

On to PPLLPGRPARDRGP [Q9Y6J0 1777-1790], for which the normalised SPOT signal, Boehringer light units (BLU); mean over the file's lines of this peptide was determined as 6220.

Consider PPPKPNRPPNVDLT [O15117 355-369], for which the normalised SPOT signal, Boehringer light units (BLU); mean over the file's lines of this peptide stood at 316.

The molecule PPKWIRRPTGVSFA [Q9NQW1 380-393] had a normalised SPOT signal, Boehringer light units (BLU); mean over the file's lines of this peptide of 42.3.

ASAPPRRPRPPPQS [Q9UEI9 3-16] registered a normalised SPOT signal, Boehringer light units (BLU); mean over the file's lines of this peptide of 914.

As for PPPLPRRPSTPRQG [O75412 1048-1061], the normalised SPOT signal, Boehringer light units (BLU); mean over the file's lines of this peptide was determined as 1930.

For PPGLPPRPPLSSSS [Q13470 532-546], the normalised SPOT signal, Boehringer light units (BLU); mean over the file's lines of this peptide was 433.

On to PPKWIRRPVGASFS [O94979 386-399], for which the normalised SPOT signal, Boehringer light units (BLU); mean over the file's lines of this peptide is 41.1.

Consider PPLPPPRPPRPPSP [Q9UPS6 160-174], for which the normalised SPOT signal, Boehringer light units (BLU); mean over the file's lines of this peptide came out at 5630.

As to PPPPPERPPPIPPD [Q13191 554-568], the normalised SPOT signal, Boehringer light units (BLU); mean over the file's lines of this peptide worked out at 29.1.

PPLLPRRPPPRVPA [O15056 1170-1184] showed a normalised SPOT signal, Boehringer light units (BLU); mean over the file's lines of this peptide of 4490.

Take AARTLRRPKALDSG [Q96RY6 273-286]: the normalised SPOT signal, Boehringer light units (BLU); mean over the file's lines of this peptide stood at 7.6.

The molecule ASATLGRPPRIPEP [Q9H0P6 178-191] gave a normalised SPOT signal, Boehringer light units (BLU); mean over the file's lines of this peptide of 139.

For PPKRPGRPPKNRES [P55201 903-917], the normalised SPOT signal, Boehringer light units (BLU); mean over the file's lines of this peptide is 7550.

In turn, PPLLPPRPPQGLEP [Q8TEH3 833-847] gave a normalised SPOT signal, Boehringer light units (BLU); mean over the file's lines of this peptide of 107.

PPGPPTRPPGPWRW [O15354 108-122] showed a normalised SPOT signal, Boehringer light units (BLU); mean over the file's lines of this peptide of 1320.

For PPHLPARPPGGWSR [BAC04291 42-56], the normalised SPOT signal, Boehringer light units (BLU); mean over the file's lines of this peptide came out at 1280.

As to PPPLPQRPPPRLPP [Q9H9H4 263-277], the normalised SPOT signal, Boehringer light units (BLU); mean over the file's lines of this peptide was 2170.

Regarding PPASPRRPRSFKSK [Q9HCK6 1105-1118], the normalised SPOT signal, Boehringer light units (BLU); mean over the file's lines of this peptide turned out to be 58.1.

As for PPGKPERPPPQGGD [P81489 133-147], the normalised SPOT signal, Boehringer light units (BLU); mean over the file's lines of this peptide is 61.4.

PPPPIPRPAKLQAA [Q9HCG4 308-321] showed a normalised SPOT signal, Boehringer light units (BLU); mean over the file's lines of this peptide of 91.

The target in another assay is endophilin SH3 (SH3G2_HUMAN), Q99962. Description: SPOT array.
Molecule PPPIPKKPPKGKFP [Q9P1A6 952-966] yielded a normalised SPOT signal, Boehringer light units (BLU); mean over the file's lines of this peptide of 3890.

Take PPLEPARPNRHPES [Q9H293 60-73]: the normalised SPOT signal, Boehringer light units (BLU); mean over the file's lines of this peptide was found to be 0.

As to PPPPPARPPARRAS [Q9H1V5 1094-1108], the normalised SPOT signal, Boehringer light units (BLU); mean over the file's lines of this peptide was 13100.

The molecule PPEKPPRPPRPLHL [Q8TEL4 110-124] gave a normalised SPOT signal, Boehringer light units (BLU); mean over the file's lines of this peptide of 29300.

As for ASFQPARPHRARHP [O95612 13-26], the normalised SPOT signal, Boehringer light units (BLU); mean over the file's lines of this peptide amounted to 649.

PPARPPRPPYPPRR [AAH27972 518-532]: the normalised SPOT signal, Boehringer light units (BLU); mean over the file's lines of this peptide was determined as 20000.

In turn, PPGKPERPPPQGGN [P10163 115-129] yielded a normalised SPOT signal, Boehringer light units (BLU); mean over the file's lines of this peptide of 760.

PPPLPNKPPPEDYY [Q8TED9 137-151] showed a normalised SPOT signal, Boehringer light units (BLU); mean over the file's lines of this peptide of 92.7.

As for PPLLPGRPARDRGP [Q9Y6J0 1777-1790], the normalised SPOT signal, Boehringer light units (BLU); mean over the file's lines of this peptide was 27100.

As for PPPKPNRPPNVDLT [O15117 355-369], the normalised SPOT signal, Boehringer light units (BLU); mean over the file's lines of this peptide was 2890.

In the case of PPKWIRRPTGVSFA [Q9NQW1 380-393], the normalised SPOT signal, Boehringer light units (BLU); mean over the file's lines of this peptide stood at 433.

Take ASAPPRRPRPPPQS [Q9UEI9 3-16]: the normalised SPOT signal, Boehringer light units (BLU); mean over the file's lines of this peptide stood at 1320.

PPPLPRRPSTPRQG [O75412 1048-1061]: the normalised SPOT signal, Boehringer light units (BLU); mean over the file's lines of this peptide is 9490.

In the case of PPGLPPRPPLSSSS [Q13470 532-546], the normalised SPOT signal, Boehringer light units (BLU); mean over the file's lines of this peptide turned out to be 5470.

PPKWIRRPVGASFS [O94979 386-399] displayed a normalised SPOT signal, Boehringer light units (BLU); mean over the file's lines of this peptide of 642.

PPLPPPRPPRPPSP [Q9UPS6 160-174]: the normalised SPOT signal, Boehringer light units (BLU); mean over the file's lines of this peptide turned out to be 8000.

As for PPPPPERPPPIPPD [Q13191 554-568], the normalised SPOT signal, Boehringer light units (BLU); mean over the file's lines of this peptide worked out at 74.8.

The molecule PPLLPRRPPPRVPA [O15056 1170-1184] yielded a normalised SPOT signal, Boehringer light units (BLU); mean over the file's lines of this peptide of 7190.

AARTLRRPKALDSG [Q96RY6 273-286] returned a normalised SPOT signal, Boehringer light units (BLU); mean over the file's lines of this peptide of 0.

ASATLGRPPRIPEP [Q9H0P6 178-191]: the normalised SPOT signal, Boehringer light units (BLU); mean over the file's lines of this peptide is 65.5.

PPKRPGRPPKNRES [P55201 903-917] registered a normalised SPOT signal, Boehringer light units (BLU); mean over the file's lines of this peptide of 13900.

As for PPLLPPRPPQGLEP [Q8TEH3 833-847], the normalised SPOT signal, Boehringer light units (BLU); mean over the file's lines of this peptide came out at 335.

Consider PPGPPTRPPGPWRW [O15354 108-122], for which the normalised SPOT signal, Boehringer light units (BLU); mean over the file's lines of this peptide amounted to 9250.

For the molecule PPHLPARPPGGWSR [BAC04291 42-56], the normalised SPOT signal, Boehringer light units (BLU); mean over the file's lines of this peptide was found to be 2410.

PPPLPQRPPPRLPP [Q9H9H4 263-277] displayed a normalised SPOT signal, Boehringer light units (BLU); mean over the file's lines of this peptide of 2770.

In the case of PPASPRRPRSFKSK [Q9HCK6 1105-1118], the normalised SPOT signal, Boehringer light units (BLU); mean over the file's lines of this peptide turned out to be 272.

PPGKPERPPPQGGD [P81489 133-147] displayed a normalised SPOT signal, Boehringer light units (BLU); mean over the file's lines of this peptide of 312.

PPPPIPRPAKLQAA [Q9HCG4 308-321] came in with a normalised SPOT signal, Boehringer light units (BLU); mean over the file's lines of this peptide of 102.
